Source: article PMC6715182, “Helicobacter pylori senses bleach (HOCl) as a chemoattractant using a cytosolic chemoreceptor” (PLoS Biology, 2019)

T1: CheW-CheA complex (4 μM CheA with 40 μM CheW) (H. pylori (G27 strain) | H. pylori (SS1 …, UniProt B5Z859 1-807; O25152 1-165)
T1 sequence 1: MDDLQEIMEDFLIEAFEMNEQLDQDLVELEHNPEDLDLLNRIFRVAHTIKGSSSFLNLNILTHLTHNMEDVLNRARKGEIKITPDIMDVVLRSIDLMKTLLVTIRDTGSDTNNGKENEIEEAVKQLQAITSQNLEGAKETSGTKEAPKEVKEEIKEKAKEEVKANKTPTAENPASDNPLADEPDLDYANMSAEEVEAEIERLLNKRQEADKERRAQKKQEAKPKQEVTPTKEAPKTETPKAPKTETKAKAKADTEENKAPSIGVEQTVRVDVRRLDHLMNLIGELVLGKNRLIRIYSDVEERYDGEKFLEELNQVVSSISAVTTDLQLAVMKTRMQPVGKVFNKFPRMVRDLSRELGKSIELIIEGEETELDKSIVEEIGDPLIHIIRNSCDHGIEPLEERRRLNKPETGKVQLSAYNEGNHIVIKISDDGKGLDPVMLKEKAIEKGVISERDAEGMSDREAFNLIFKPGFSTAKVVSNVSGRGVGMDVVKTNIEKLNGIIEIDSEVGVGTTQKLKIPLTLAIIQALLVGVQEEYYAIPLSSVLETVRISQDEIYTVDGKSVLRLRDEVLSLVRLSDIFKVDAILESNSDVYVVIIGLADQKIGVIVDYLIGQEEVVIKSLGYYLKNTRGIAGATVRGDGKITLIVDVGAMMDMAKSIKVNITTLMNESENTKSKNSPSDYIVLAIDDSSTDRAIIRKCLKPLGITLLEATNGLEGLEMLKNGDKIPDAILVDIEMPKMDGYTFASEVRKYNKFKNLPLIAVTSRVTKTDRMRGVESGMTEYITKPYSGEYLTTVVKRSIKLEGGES
T1 sequence 2: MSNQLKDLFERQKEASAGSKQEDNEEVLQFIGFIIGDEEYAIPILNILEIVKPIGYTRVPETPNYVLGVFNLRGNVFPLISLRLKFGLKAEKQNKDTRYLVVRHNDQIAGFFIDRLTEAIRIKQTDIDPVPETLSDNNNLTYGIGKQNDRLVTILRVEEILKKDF

T2: Helicobacter pylori chemotaxis protein A (CheA), histidine kinase, recombinant (H. pylori (G27 strain), UniProt B5Z859 1-807)
T2 construct: CheA histidine kinase of H. pylori strain G27, Uniprot B5Z859; no limits stated; No cleavage of the tag is described for CheA; also called HpCheA; source: E. coli ArcticExpress DE3, purified (Ni-NTA, gel filtration)
T2 sequence: T1 sequence 1

B1: Helicobacter pylori transducer-like protein D (TlpD), recombinant, with intact N-terminal His tag (receptor)
chain: not shown
notes: TlpD, cytosolic chemoreceptor of H. pylori strain SS1, Uniprot A0A1U9IUC7; Monomer-dimer equilibrium; copies 2 is the dimer form; also called HpTlpD; TlpD(+His); source: E. coli ArcticExpress DE3, purified (Ni-NTA, gel filtration)
B2: Helicobacter pylori TlpD lacking the N-terminal His tag, TlpD(-His) (receptor)
chain: not shown
notes: TlpD, cytosolic chemoreceptor of H. pylori strain SS1, Uniprot A0A1U9IUC7; no limits stated; Tag cut by TEV protease; source: E. coli ArcticExpress DE3, purified (Ni-NTA, TEV protease, repurified, gel filtration)
B3: Helicobacter pylori chemotaxis protein W (CheW), recombinant (natural protein)
chain: T1 sequence 2
notes: CheW scaffold protein of H. pylori strain SS1, Uniprot A0A1U9ITT8; no limits stated; source: E. coli ArcticExpress DE3, purified (Ni-NTA, gel filtration)

Experiments:
[1] = target: T1, CheW-CheA complex (4 μM CheA with 40 μM …); test: cell-based or functional assay
[2] = target: T1, CheW-CheA complex (4 μM CheA with 40 μM …); test: kinase activity titration (radio-ATP labelling of CheA autophosphorylation); TlpD titrated against 4 μM CheA and 40 μM CheW, 1 mM ATP; kobs values fit to a binding isotherm; CheA-CheW complex approximated as 2 μM; kinetically defined, estimated KD; 50 mM Tris (pH 7.5), 100 mM NaCl, 10 mM MgCl2, 20°C; details: both partners purified
[3] = target: the molecule itself; test: AUC; interference; 1, 2 and 3 x 10 μM TlpD and 3 x 28 μM TlpD(-His) in PBS (pH 7), 1 mM TCEP, 20°C, 55,000 rpm; monomer and dimer peaks integrated (SedFit); dimer to monomers
[4] = target: T2, Helicobacter pylori chemotaxis protein …; test: kinase activity titration (radio-ATP labelling of CheA autophosphorylation); CheW titrated against 4 μM CheA, 1 mM ATP; kobs values fit to a binding isotherm; kinetically defined, estimated KD; 50 mM Tris (pH 7.5), 100 mM NaCl, 10 mM MgCl2, 20°C; details: both partners purified
[5] = target: T2, Helicobacter pylori chemotaxis protein …; test: cell-based or functional assay

Row | Binder | CheA autophosphorylation (radio-ATP labelling), titration of TlpD against 4 μM CheA and 40 μM CheW, maximal activation over CheA alone [1] [fold] | Kd [2] [µM] | Kd [3] [µM] | stoichiometry N [3] | Kd [4] [µM] | CheA autophosphorylation (radio-ATP labelling), titration of CheW against 4 μM CheA, maximal activation over CheA alone [5] [fold]
1 | B1 | 14.6 | 15.2 | 0.189 | 2 |  | 
2 | B2 |  |  | 0.0648 | 2 |  | 
3 | B3 |  |  |  |  | 14.6 | 2.7
